The values that follow come from patent US20220010021A1 (Sanofi, published 2022).

Positions count from the first letter of the chain named.

Experiment [1] concerns the target T1, human beta-Klotho (KLB) (human, UniProt Q86Z14 53-997).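 Note: Anti-KLB antibodies captured on anti-human Fc CM5 chip, KLB injected as analyte, 180 s association and 1800 s dissociation, fitted to 1:1 binding model.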
T1 construct: bought protein; also called human KLB
T1 sequence (looked up): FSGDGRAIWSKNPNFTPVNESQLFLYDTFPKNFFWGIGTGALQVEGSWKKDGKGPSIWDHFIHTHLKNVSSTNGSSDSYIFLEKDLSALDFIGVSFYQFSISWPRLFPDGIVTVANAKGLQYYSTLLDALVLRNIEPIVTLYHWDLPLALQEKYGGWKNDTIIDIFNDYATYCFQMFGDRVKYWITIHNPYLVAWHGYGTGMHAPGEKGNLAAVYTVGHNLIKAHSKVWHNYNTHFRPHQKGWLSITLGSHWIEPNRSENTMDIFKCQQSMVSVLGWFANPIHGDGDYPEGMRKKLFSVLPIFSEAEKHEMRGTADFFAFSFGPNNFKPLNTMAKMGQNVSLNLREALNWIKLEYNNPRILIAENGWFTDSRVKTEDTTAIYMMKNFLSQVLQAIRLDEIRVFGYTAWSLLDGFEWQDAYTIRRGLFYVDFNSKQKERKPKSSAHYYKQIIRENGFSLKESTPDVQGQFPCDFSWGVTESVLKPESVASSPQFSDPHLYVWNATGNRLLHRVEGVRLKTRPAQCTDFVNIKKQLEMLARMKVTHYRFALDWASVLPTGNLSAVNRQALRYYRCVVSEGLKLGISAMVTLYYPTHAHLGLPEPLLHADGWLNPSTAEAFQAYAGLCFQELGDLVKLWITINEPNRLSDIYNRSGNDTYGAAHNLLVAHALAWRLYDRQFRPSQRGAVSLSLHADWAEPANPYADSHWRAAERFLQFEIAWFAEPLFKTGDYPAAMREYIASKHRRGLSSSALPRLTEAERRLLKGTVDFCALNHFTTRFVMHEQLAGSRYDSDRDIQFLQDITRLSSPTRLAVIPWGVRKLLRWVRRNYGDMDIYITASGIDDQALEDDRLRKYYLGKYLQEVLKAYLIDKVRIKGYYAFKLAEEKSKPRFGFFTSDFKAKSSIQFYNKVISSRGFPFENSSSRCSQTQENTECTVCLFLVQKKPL
Briefly: SPR. (In general: In SPR one partner is held on a chip, and binding of the other changes the refractive index at the surface.)

Experiment [2] deals with human FGFR1c + KLB receptor complex on HEK293 iLite FGF21 reporter cells (human, UniProt P11362 22-822; Q86Z14 1-1044). Briefly: cell-based or functional assay.
Sequence of human FGFR1c + KLB receptor complex on HEK293 iLite FGF21 reporter cells (P11362 22-822, chain 1 of 2): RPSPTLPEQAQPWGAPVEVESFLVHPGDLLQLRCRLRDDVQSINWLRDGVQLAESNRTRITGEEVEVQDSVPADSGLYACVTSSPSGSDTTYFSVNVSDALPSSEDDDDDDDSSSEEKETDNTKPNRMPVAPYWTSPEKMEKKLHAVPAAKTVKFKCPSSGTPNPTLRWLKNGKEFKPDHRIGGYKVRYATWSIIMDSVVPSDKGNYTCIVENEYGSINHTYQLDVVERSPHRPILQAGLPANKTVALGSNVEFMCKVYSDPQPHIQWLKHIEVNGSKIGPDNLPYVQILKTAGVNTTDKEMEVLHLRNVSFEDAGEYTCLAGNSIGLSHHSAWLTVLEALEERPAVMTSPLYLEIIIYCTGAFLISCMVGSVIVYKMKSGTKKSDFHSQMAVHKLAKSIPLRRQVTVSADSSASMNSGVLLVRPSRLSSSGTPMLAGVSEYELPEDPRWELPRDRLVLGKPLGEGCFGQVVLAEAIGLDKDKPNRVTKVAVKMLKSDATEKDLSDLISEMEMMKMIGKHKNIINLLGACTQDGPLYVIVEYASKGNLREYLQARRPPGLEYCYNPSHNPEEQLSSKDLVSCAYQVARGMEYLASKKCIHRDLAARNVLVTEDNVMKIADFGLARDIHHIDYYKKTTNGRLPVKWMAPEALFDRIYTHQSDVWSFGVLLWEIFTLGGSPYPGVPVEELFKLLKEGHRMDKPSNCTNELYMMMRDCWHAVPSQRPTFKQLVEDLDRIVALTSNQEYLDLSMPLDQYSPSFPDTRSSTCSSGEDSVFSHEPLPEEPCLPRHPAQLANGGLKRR
Sequence of human FGFR1c + KLB receptor complex on HEK293 iLite FGF21 reporter cells (Q86Z14 whole entry, chain 2 of 2): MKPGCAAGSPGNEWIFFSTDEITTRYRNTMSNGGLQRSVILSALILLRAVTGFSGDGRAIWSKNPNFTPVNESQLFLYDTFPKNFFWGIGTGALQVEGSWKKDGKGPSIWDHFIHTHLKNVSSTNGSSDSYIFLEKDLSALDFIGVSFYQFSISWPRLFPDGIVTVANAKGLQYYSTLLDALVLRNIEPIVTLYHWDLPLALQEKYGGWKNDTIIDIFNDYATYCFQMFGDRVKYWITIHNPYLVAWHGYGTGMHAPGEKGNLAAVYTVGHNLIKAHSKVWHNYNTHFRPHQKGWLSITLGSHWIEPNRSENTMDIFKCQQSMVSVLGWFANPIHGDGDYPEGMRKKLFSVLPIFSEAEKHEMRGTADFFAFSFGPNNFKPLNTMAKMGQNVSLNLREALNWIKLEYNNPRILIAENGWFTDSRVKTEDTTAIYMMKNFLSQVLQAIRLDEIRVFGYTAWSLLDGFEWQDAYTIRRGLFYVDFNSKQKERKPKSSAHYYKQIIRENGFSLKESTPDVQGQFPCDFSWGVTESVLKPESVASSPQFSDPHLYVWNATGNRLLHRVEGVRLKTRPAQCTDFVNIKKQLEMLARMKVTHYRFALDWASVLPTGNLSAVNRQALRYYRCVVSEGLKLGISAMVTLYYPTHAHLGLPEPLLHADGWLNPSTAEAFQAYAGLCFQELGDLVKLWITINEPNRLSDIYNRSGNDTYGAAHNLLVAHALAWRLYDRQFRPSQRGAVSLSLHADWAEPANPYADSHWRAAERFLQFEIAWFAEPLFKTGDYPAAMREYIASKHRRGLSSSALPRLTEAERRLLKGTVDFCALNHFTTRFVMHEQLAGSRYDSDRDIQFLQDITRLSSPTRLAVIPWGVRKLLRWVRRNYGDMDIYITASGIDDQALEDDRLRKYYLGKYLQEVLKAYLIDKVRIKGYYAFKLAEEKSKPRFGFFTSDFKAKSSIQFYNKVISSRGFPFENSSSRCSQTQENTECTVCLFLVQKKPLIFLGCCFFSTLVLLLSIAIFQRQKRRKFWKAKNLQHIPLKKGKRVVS

B1: Ab0309 (antibody, IgG4, V domains shown)
VH: QVTLKESGPVLVKPTETLTLTCTVSGFSLNNARVGVSWIRQPPGKALEWLAHIFSNDEKSYSTSLKSRLTISKDTSKSQVVLTMTNMDPVDTATYYCARSVVTGGYYYEGMDVWGQGTTVTVSS
VL: SYVLTQPPSVSVAPGQTARITCGGNNIGSESVHWYQQKPGQAPVLVVYDESDRPSGIPERFSGSNSGNTATLTISRVEAGDEADYYCQVWDGESDHVVFGGGTKLTVLG
notes: IgG4 PE
One may read the koff as a measure of how fast the partners let go of each other. The low end stands for a long-lived complex, the high end for a short-lived complex. A word on the EC50: it is the midpoint of the concentration-response curve. Usually Emax stands for the maximal effect, on the per cent scale that the assay sets. As for B1, the dissociation rate constant (koff) in experiment [1] came to 0.00103 s⁻¹. Moreover, in experiment [2], the concentration giving a half-maximal response (EC50) amounted to 40 pM and the Emax is 1210%.

B2: Ab0314 (antibody, IgG4, V domains shown)
VH: B1 VH
VL: B1 VL with N25S, E50D, D91T
notes: IgG4 PE
The molecule B2 came in with a koff in experiment [1] of 0.000402 s⁻¹. For the same molecule, in experiment [2], the EC50 stood at 50 pM and the Emax came to 1110%.

B3: Ab0312 (antibody, IgG4, V domains shown)
VH: B1 VH
VL: B1 VL with N25S, D49Y
notes: IgG4 PE
Turning to B3, the koff in experiment [1] turned out to be 0.00053 s⁻¹. Besides, in experiment [2], the concentration giving a half-maximal response (EC50) came to 70 pM and the Emax was 1010%.

B4: Ab0358 (antibody, IgG4, V domains shown)
VH: B1 VH
VL: B1 VL with N25S, D49E, E50A, D91H, E93S
notes: IgG4 PE
Molecule B4 registered a koff in experiment [1] of 0.000454 s⁻¹. In experiment [2], the EC50 is 70 pM and the Emax worked out at 858%.

B5: Ab0344 (antibody, IgG4, V domains shown)
VH: B1 VH
VL: B1 VL with N25S, D49A, E50A, D91E, E93S
notes: IgG4 PE
As to B5, the koff in experiment [1] came to 0.00168 s⁻¹. Also, in experiment [2], the 50% effective concentration (EC50) came out at 70 pM and the Emax was found to be 958%.

B6: Ab0345 (antibody, IgG4, V domains shown)
VH: B1 VH
VL: B1 VL with N25S, D49A, E50A, D91E, E93A
notes: IgG4 PE
The molecule B6 yielded a koff in experiment [1] of 0.00188 s⁻¹. Besides, in experiment [2], the concentration for a half-maximal effect (EC50) amounted to 70 pM and the Emax is 908%.

B7: Ab0338 (antibody, IgG4, V domains shown)
VH: B1 VH
VL: B1 VL with N25S, D49S, E50S, D91A, E93S
notes: IgG4 PE
Molecule B7 showed a koff in experiment [1] of 0.000429 s⁻¹. Further, in experiment [2], the concentration for a half-maximal effect (EC50) was 60 pM and the maximum response (Emax) amounted to 971%.

B8: Ab0333 (antibody, IgG4, V domains shown)
VH: B1 VH
VL: B1 VL with N25S, D49S, E50Y, D91A, E93S
notes: IgG4 PE
For B8, the off-rate (koff) in experiment [1] stood at 0.000251 s⁻¹. In experiment [2], the EC50 stood at 200 pM and the Emax came to 769%.

B9: Ab0364 (antibody, IgG4, V domains shown)
VH: B1 VH
VL: B1 VL with N25A, D49E, D91E, E93S
notes: IgG4 PE
In experiment [1], B9 came in with a koff of 0.00169 s⁻¹. In addition, in experiment [2], the EC50 was 110 pM and the Emax is 991%.

B10: Ab0326 (antibody, IgG4, V domains shown)
VH: B1 VH
VL: B1 VL with N25S, D49Y, D91E, E93S
notes: IgG4 PE
Regarding B10, the koff in experiment [1] is 0.00175 s⁻¹. In experiment [2], the EC50 is 70 pM and the Emax turned out to be 1010%.

B11: Ab0417 (antibody, IgG4, V domains shown)
VH: B1 VH
VL: B1 VL with N25S, D49Y, D91H
notes: IgG4 PE
B11 showed a koff in experiment [1] of 0.000303 s⁻¹. Besides, in experiment [2], the EC50 came out at 60 pM and the Emax was 1110%.

B12: Ab0357 (antibody, IgG4, V domains shown)
VH: B1 VH
VL: B1 VL with N25S, D49E, E50A, D91E, E93S
notes: IgG4 PE
With B12, the koff in experiment [1] was found to be 0.00185 s⁻¹. For the same molecule, in experiment [2], the EC50 came to 80 pM and the Emax was found to be 893%.

B13: Ab0327 (antibody, IgG4, V domains shown)
VH: B1 VH
VL: B1 VL with N25S, D49Y, E50Y, D91E
notes: IgG4 PE
The molecule B13 registered a koff in experiment [1] of 0.000346 s⁻¹. Also, in experiment [2], the 50% effective concentration (EC50) turned out to be 50 pM and the maximum response (Emax) came to 995%.

B14: Ab0311 (antibody, IgG4, V domains shown)
VH: B1 VH
VL: B1 VL with D49Y
notes: IgG4 PE
For B14, the koff in experiment [1] was 0.0013 s⁻¹. In addition, in experiment [2], the EC50 was determined as 50 pM and the Emax was found to be 1080%.

B15: Ab0337 (antibody, IgG4, V domains shown)
VH: B1 VH
VL: B1 VL with N25S, D49S, E50H, D91E
notes: IgG4 PE
For the molecule B15, in experiment [1], the koff is 0.00053 s⁻¹. In experiment [2], the EC50 came out at 60 pM and the Emax stood at 1030%.

B16: Ab0416 (antibody, IgG4, V domains shown)
VH: B1 VH
VL: B1 VL with N25S, D49Y, D91E
notes: IgG4 PE
As to B16, the off-rate (koff) in experiment [1] was found to be 0.00107 s⁻¹. For the same molecule, in experiment [2], the EC50 is 50 pM and the Emax was determined as 863%.

B17: Ab0352 (antibody, IgG4, V domains shown)
VH: B1 VH
VL: B1 VL with N25S, D49E, D91E, E93S
notes: IgG4 PE
The molecule B17 came in with a koff in experiment [1] of 0.000419 s⁻¹. Also, in experiment [2], the half-maximal effective concentration (EC50) turned out to be 70 pM and the Emax was 1010%.

B18: Ab0332 (antibody, IgG4, V domains shown)
VH: B1 VH
VL: B1 VL with N25S, D49S, D91E, E93A
notes: IgG4 PE
B18 had a koff in experiment [1] of 0.00143 s⁻¹. Further, in experiment [2], the half-maximal effective concentration (EC50) turned out to be 50 pM and the Emax was found to be 995%.

B19: Ab0360 (antibody, IgG4, V domains shown)
VH: B1 VH
VL: B1 VL with N25S, D49E, E50H, D91E, E93S
notes: IgG4 PE
The molecule B19 gave a koff in experiment [1] of 0.00192 s⁻¹. Besides, in experiment [2], the concentration giving a half-maximal response (EC50) was found to be 80 pM and the maximum response (Emax) was determined as 845%.

B20: Ab0340 (antibody, IgG4, V domains shown)
VH: B1 VH
VL: B1 VL with N25S, D49A, D91E, E93S
notes: IgG4 PE
In the case of B20, the koff in experiment [1] is 0.00176 s⁻¹. In experiment [2], the EC50 is 50 pM and the Emax stood at 912%.

B21: Ab0354 (antibody, IgG4, V domains shown)
VH: B1 VH
VL: B1 VL with N25S, D49E, D91H, E93S
notes: IgG4 PE
B21: the koff in experiment [1] is 0.00158 s⁻¹. Moreover, in experiment [2], the EC50 is 70 pM and the Emax is 878%.

B22: Ab0310 (antibody, IgG4, V domains shown)
VH: B1 VH
VL: B1 VL with N25S
notes: IgG4 PE
As for B22, the koff in experiment [1] worked out at 0.00116 s⁻¹. Besides, in experiment [2], the EC50 worked out at 50 pM and the Emax was found to be 1080%.

B23: Ab0361 (antibody, IgG4, V domains shown)
VH: B1 VH
VL: B1 VL with N25S, D49E, E50S, D91E, E93S
notes: IgG4 PE
As for B23, the koff in experiment [1] was 0.00163 s⁻¹. Moreover, in experiment [2], the EC50 was found to be 70 pM and the Emax is 986%.

B24: Ab0355 (antibody, IgG4, V domains shown)
VH: B1 VH
VL: B1 VL with N25S, D49E, E50Y, D91E, E93S
notes: IgG4 PE
Molecule B24 gave a koff in experiment [1] of 0.00195 s⁻¹. In experiment [2], the EC50 was 70 pM and the Emax was found to be 829%.

B25: Ab0353 (antibody, IgG4, V domains shown)
VH: B1 VH
VL: B1 VL with N25S, D49E, D91E, E93A
notes: IgG4 PE
Consider B25, for which the koff in experiment [1] came to 0.00038 s⁻¹. In experiment [2], the EC50 is 80 pM and the maximal effect (Emax) is 895%.
